# Experimental data published in the DeepSol protein solubility set.
# Test: soluble on expression in E. coli; label from the status in PepcDB or PDB records
row,Sequence,soluble on expression in E. coli
1,MLTIAMPKGRIFEEAVELLRRGDYALPPEFTESRKLVIDVPEENMRFILAKPMDVVTYVEHGVADLGIAGKDVLMEEERDVYELLDLQISRCHLAVAGLPGAKMNEIAPRVATKYPNIASTYFREQGEQVEIIRLNGSIELAPLIGLADRIVDIVSTGRTLRENGLVELERIAEVTSRLIVNPASYRLNGGDIERLVDRLAAVIPQP,not soluble
2,MLTIEPPSATFPASGGSSTHTITSVNESRMAFKVKSSNNEHYRVRPVYGFVEARGKMKFEIIRLEGPVKDDKIMLQYAEVPADETDAQAPFKAGAQQGDVTILLKTN,not soluble
3,MLTMRICLRATYTQKEYKWESTVNEQISAASLYDRVARVIPKAEWMGFQDDVEAILELKRKRNAVILAHNYQTPEIFHGVADIVGDSLALARKAMEVEADVIVLAGVHFMAETAKLLNPEKTVLIPDMAAGCSLADSITPEDIALLRKAYPGVPVVTYVNTSAAVKAASDICCTSGNARQVVESLGVPRVLMLPDEYLAKNVAKETSVELIAWRGHCEVHELFTADDIRELRESHPGVIVLAHPECPPEVVDAADFSGSTAVMSDYVGRERPARVVLLTECSMSDNVAVHHPDVEFIRPCNLCPHMKRITLGNIRTALEENRHEVTVDPAIAGAARRAVERMLQIMAGDPLEHHHHHH,not soluble
4,MLTPTPDSSPRSTSSPSQSKNGSFTPRTANILKPLMSPPSREEIMATLLDHD,soluble
5,MLTRSMVLVNEAWWVEPLPVHWVDKLVAELEAKLQNRGKDEYIFNGGLSVSGLQHIGRLRGEVLLGEAVRRELEKRGFRVKQLLTLYTVDPWKGKDEQRREFPDPKAAERYVGWPLDRVPDPKGCHASWVDHFWSDFGPYIGVFTDGKIEVVTTRELYKGRLKEFITTMVLPRRDEIRRVINKYRGRKPYQEGWIPLEPRCARCGRIDSTEALEILGGERVRYRCSYCGYQGESSIEDSKLNWRIEWAGVWWSLGVDFEPYGKDHATPGGSRDSAAELARLLGFEPPEGVWYEWVSLRAGGREADMSSSGFTGITPREWLDIAHPQILRFIYFLHPPTRRVVVDLSEIPSYYSQYYRAERIYFGIEEASTVEETRYLARTYELSHPSNPPAKPPSQIPYSHAAIVAQVVGPERLWTDGLERLKRAGLLGHDEYSIRWAKELLEKAYKWARRYAPKHLKFEIPDSPPEDALRRIEKPDLLEKLAEVLESVEEWSEERIKQALVEFGEGMSSSERRRFYRDFYLAIVGRPEGPRAAPLLSLMDRGFVVDRLRKAANLSRELKGR,soluble
6,MLTTLAISNYRTLREIVLPLGRLNVVTGANGSGKSNLYKALRLLAQTAQGGVVNALALEGGLDSCFWAGPENLTKGMLAGDTPIEATVRQAPKRLKLGFAGEDFSYLIELGLPKPDSTTLFGLDPQIKREAIWNGAKYRPASVLVERRGPMVKSRSQDGQGWITLSAHLQSSDSIFTELADPERSPEVLKLRDSIRAWRFYDHFRTDTDAPARRPQLGTATPVLHHDGRDLPSAIQTIFEIGDKSAFDHAVSDAFPGAKVRITPQAGGILQLEFQQQGLLRPLYASELSDGTLRYLLLIAALLTPRPPELMVLNEPETSLHPDLLPALARLIAKASELEHHHHHH,not soluble
7,MLTVTDYYKELLNFCARTLKDRDAAADLVQEAYTRFLVAQRSGAAIADPRALLFRTTRNLLIDQHRRAEVRMHLSLDTLLEEEQPLAPRHLQPEEVLAFSRYAQALYAAIESLPRRCREAFILNRFDGLSHQEVAEKMGISRNMVAQHIIRGVLVCKACDDRFHGRVVLASKPAE,not soluble
8,MLVAERQQKIVEIVNMRSSIRVSELSDIFSVTEETIRRDLEKLEKEHKLSRSHGGAVSIQQKESEIHFSEREITNVIEKKAIAHEAAKYVKSGDRIILDASTTAWYMAKILPDIELTVITNSMKAAIELSNKENISVISTGGILLEKSLSFAGPLAERSLETYHVNKTFLSCKGFDVHNGMSDSNEWQALLKKRMIERSDQTILMADSSKWGNREFSHIASLQDVSRLITDSGLDPASVKALEDKKVKVTAVPLSKRGLEHHHHHH,soluble
9,MLVKDFMTRNPITIAPETSFSEALKLMKQNKIKRLIVMKNEKIVGIVTEKDLLYASPSKATTLNIWELHYLLSKLKIEEIMTKDVVTVNENTPIEDAARIMEEKDISGLPVVDDAGRLVGIITQTDIFKVFVEIFGTKREGTIRYTMEMPDKPGELLEVAKRIYEAGGNIISIATLFEEGKDSYLATLRVENIDHEKFVKSLDEIDVKLLYYHSN,soluble
